B1: AthPEPCK1 Δ19 truncated mutant (enzyme, Arabidopsis thaliana, UniProt Q9T074 20-671, looked up)
chain: GPVMPKITTGAAKRGSGVCHDDSGPTVNATTIDELHSLQKKRSAPTTPINQNAAAAFAAVSEEERQKIQLQSISASLASLTRESGPKVVRGDPAEKKTDGSTTPAYAHGQHHSIFSPATGAVSDSSLKFTHVLYNLSPAELYEQAIKYEKGSFITSNGALATLSGAKTGRAPRDKRVVRDATTEDELWWGKGSPNIEMDEHTFMVNRERAVDYLNSLEKVFVNDQYLNWDPENRIKVRIVSARAYHSLFMHNMCIRPTQEELESFGTPDFTIYNAGQFPCNRYTHYMTSSTSVDLNLARREMVILGTQYAGEMKKGLFSVMHYLMPKRRILSLHSGCNMGKDGDVALFFGLSGTGKTTLSTDHNRYLIGDDEHCWTETGVSNIEGGCYAKCVDLSREKEPDIWNAIKFGTVLENVVFDEHTREVDYSDKSVTENTRAAYPIEFIPNAKIPCVGPHPTNVILLACDAFGVLPPVSKLNLAQTMYHFISGYTALVAGTEDGIKEPTATFSACFGAAFIMLHPTKYAAMLAEKMKSQGATGWLVNTGWSGGSYGVGNRIKLAYTRKIIDAIHSGSLLKANYKKTEIFGFEIPTEIEGIPSEILDPVNSWSDKKAHKDTLVKLGGLFKKNFEVFANHKIGVDGKLTEEILAAGPIF
B2: AthPEPCK1 Δ101 truncated mutant (enzyme, Arabidopsis thaliana, UniProt Q9T074 102-671, looked up)
chain: ESGPKVVRGDPAEKKTDGSTTPAYAHGQHHSIFSPATGAVSDSSLKFTHVLYNLSPAELYEQAIKYEKGSFITSNGALATLSGAKTGRAPRDKRVVRDATTEDELWWGKGSPNIEMDEHTFMVNRERAVDYLNSLEKVFVNDQYLNWDPENRIKVRIVSARAYHSLFMHNMCIRPTQEELESFGTPDFTIYNAGQFPCNRYTHYMTSSTSVDLNLARREMVILGTQYAGEMKKGLFSVMHYLMPKRRILSLHSGCNMGKDGDVALFFGLSGTGKTTLSTDHNRYLIGDDEHCWTETGVSNIEGGCYAKCVDLSREKEPDIWNAIKFGTVLENVVFDEHTREVDYSDKSVTENTRAAYPIEFIPNAKIPCVGPHPTNVILLACDAFGVLPPVSKLNLAQTMYHFISGYTALVAGTEDGIKEPTATFSACFGAAFIMLHPTKYAAMLAEKMKSQGATGWLVNTGWSGGSYGVGNRIKLAYTRKIIDAIHSGSLLKANYKKTEIFGFEIPTEIEGIPSEILDPVNSWSDKKAHKDTLVKLGGLFKKNFEVFANHKIGVDGKLTEEILAAGPIF

Target: the molecule itself
Assay: SEC

| Protein | stoichiometry N |
| --- | --- |
| B1 | 6 |
| B2 | 6 |
